Data on two molecules can be found in paper doi:10.1101/2021.07.30.454553 (bioRxiv, 2021).

What all share (assay): single-molecule colocalisation on microtubules
Assay [1] has as its target T1, KIF5B^Δ1-336 (human, UniProt P33176 337-963).
T1 sequence (looked up): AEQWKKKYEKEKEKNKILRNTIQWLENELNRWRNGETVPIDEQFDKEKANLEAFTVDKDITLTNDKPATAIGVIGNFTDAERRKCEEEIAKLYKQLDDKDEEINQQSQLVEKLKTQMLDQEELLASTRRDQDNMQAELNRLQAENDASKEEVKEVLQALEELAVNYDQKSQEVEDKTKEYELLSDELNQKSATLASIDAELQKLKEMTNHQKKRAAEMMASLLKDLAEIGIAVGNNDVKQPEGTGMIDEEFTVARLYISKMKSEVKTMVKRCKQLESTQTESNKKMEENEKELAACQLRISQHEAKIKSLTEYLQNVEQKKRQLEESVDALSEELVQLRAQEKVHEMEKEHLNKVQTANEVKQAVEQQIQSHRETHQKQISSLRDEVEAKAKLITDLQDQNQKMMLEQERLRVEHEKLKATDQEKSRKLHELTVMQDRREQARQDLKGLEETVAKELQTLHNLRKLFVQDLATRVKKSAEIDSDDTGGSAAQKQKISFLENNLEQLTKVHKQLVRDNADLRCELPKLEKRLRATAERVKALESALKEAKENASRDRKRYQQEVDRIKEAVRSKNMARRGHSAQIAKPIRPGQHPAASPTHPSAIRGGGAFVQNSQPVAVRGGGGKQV

For assay [2], the target named is T2, full-length human kinesin-1 heavy chain (KIF5B) (human, UniProt P33176 1-963, LD555, LD655 or Alexa488 label (imaging assays)).
T2 sequence (looked up): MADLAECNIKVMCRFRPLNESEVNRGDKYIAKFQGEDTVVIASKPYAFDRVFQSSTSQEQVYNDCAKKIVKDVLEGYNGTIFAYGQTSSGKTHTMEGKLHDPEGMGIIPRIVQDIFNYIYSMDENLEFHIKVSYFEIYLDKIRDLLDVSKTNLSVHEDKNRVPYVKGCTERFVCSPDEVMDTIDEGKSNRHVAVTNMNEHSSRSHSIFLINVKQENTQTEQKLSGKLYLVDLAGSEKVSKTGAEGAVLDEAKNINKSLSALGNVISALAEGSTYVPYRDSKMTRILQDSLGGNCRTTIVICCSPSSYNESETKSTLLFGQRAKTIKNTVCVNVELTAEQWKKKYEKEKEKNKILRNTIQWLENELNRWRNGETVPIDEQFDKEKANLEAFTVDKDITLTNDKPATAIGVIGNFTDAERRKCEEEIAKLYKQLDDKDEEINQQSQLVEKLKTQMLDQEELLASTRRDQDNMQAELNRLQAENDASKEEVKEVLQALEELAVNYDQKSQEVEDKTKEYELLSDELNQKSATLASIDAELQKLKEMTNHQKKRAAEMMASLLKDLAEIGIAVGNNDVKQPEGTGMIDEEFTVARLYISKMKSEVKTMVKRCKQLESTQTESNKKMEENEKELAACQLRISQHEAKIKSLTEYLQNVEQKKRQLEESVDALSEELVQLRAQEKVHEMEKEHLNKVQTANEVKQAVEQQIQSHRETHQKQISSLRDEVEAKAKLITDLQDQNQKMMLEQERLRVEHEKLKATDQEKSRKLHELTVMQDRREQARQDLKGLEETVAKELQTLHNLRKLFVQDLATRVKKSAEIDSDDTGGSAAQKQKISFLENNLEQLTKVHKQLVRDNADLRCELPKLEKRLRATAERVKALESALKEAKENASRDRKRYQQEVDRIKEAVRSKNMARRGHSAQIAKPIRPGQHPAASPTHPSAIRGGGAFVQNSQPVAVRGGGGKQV

Assay [3] deals with T2, full-length human kinesin-1 heavy chain …. The source holds these as a separate data set.

Like-named read-outs stand apart in the source and are kept apart here.

B1: TRAK1^1-400 (domain or fragment, human, UniProt Q9UPV9 1-400, looked up)
chain: MALVFQFGQPVRAQPLPGLCHGKLIRTNACDVCNSTDLPEVEIISLLEEQLPHYKLRADTIYGYDHDDWLHTPLISPDANIDLTTEQIEETLKYFLLCAERVGQMTKTYNDIDAVTRLLEEKERDLELAARIGQSLLKKNKTLTERNELLEEQVEHIREEVSQLRHELSMKDELLQFYTSAAEESEPESVCSTPLKRNESSSSVQNYFHLDSLQKKLKDLEEENVVLRSEASQLKTETITYEEKEQQLVNDCVKELRDANVQIASISEELAKKTEDAARQQEEITHLLSQIVDLQKKAKACAVENEELVQHLGAAKDAQRQLTAELRELEDKYAECMEMLHEAQEELKNLRNKTMPNTTSRRYHSLGLFPMDSLAAEIEGTMRKELQLEEAESPDITHQK
modifications: LD555 or LD655 dye on the SNAP tag
With B1, the binding result in assay [1] and in assay [2] was “binds” throughout.

B2: TRAK1^1-532 (domain or fragment, human, UniProt Q9UPV9 1-532, looked up)
chain: MALVFQFGQPVRAQPLPGLCHGKLIRTNACDVCNSTDLPEVEIISLLEEQLPHYKLRADTIYGYDHDDWLHTPLISPDANIDLTTEQIEETLKYFLLCAERVGQMTKTYNDIDAVTRLLEEKERDLELAARIGQSLLKKNKTLTERNELLEEQVEHIREEVSQLRHELSMKDELLQFYTSAAEESEPESVCSTPLKRNESSSSVQNYFHLDSLQKKLKDLEEENVVLRSEASQLKTETITYEEKEQQLVNDCVKELRDANVQIASISEELAKKTEDAARQQEEITHLLSQIVDLQKKAKACAVENEELVQHLGAAKDAQRQLTAELRELEDKYAECMEMLHEAQEELKNLRNKTMPNTTSRRYHSLGLFPMDSLAAEIEGTMRKELQLEEAESPDITHQKRVFETVRNINQVVKQRSLTPSPMNIPGSNQSSAMNSLLSSCVSTPRSSFYGSDIGNVVLDNKTNSIILETEAADLGNDERSKKPGTPGTPGSHDLETALRRLSLRRENYLSERRFFEEEQERKLQELAEKGE
modifications: LD555 dye on the SNAP tag (imaging assays)
Take B2: the binding result in assay [3] was “binds”.
